What was measured:
[1] = target: T1, GFP-MKLP2 WT (human), O95235; experiment: SEC; 1 mg lysate of nocodazole-arrested HeLa cells on Superose 6 10/300 at 4°C; fractions Western blotted for MKLP2 and GFP; size from calibration standards; conditions: remark: other sources report otherwise
T1 chain: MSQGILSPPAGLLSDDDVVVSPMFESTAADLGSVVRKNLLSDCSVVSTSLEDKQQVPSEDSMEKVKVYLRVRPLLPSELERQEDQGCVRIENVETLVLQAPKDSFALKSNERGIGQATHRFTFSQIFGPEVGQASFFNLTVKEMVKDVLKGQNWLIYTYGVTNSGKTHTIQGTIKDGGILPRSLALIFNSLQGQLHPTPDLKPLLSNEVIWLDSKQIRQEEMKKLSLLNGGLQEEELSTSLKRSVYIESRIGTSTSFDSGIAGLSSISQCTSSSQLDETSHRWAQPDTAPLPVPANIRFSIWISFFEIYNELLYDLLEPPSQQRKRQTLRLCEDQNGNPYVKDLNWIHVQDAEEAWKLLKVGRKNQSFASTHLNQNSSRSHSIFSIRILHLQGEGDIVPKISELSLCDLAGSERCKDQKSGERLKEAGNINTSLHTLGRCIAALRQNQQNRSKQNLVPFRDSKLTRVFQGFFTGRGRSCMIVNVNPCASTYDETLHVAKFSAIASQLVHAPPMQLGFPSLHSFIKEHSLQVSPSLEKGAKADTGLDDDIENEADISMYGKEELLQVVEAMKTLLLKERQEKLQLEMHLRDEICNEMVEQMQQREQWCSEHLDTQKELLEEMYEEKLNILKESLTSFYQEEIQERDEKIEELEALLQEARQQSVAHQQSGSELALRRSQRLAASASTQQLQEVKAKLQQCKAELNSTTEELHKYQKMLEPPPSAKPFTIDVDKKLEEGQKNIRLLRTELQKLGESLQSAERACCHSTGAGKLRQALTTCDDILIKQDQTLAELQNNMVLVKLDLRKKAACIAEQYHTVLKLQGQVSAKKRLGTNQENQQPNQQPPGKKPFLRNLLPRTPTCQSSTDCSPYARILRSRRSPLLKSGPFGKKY

[2] = target: T2, MKLP2 (endogenous) (human (endogenous in HeLa)), O95235; experiment: as above; conditions: remark: other sources report otherwise
T2 chain: T1 chain

B1: GFP-MKLP2 WT, O95235 1-890 (natural protein)
chain: T1 chain
stoichiometry N [1]: 2

B2: MKLP2 (endogenous), O95235 1-890 (natural protein)
chain: T1 chain
stoichiometry N [2]: 2
